Experimental findings from PMC3870462 (Chemistry & biology, 2013) are described below.

Data set [1] has as its target CurH ACP-dd (Moorea producens). Description: fluorescence polarisation. On the technique in general: Fluorescence polarisation rises when a labelled molecule tumbles more slowly, as on binding a larger partner.
The target of data set [2] is PikAIIID-^ACPddG (not stated | Moorea producens).
The target of data set [3] is CurK ACP-dd E2224R (Moorea producens). Description: fluorescence polarisation.
Data set [4] has the same target. Description: fluorescence polarisation. This is another data set of the same source.
For data set [5], the target named is CurG ACP-dd (Moorea producens). The experiment in a line: fluorescence polarisation.
The target of data set [6] is CurK ACP-dd (Moorea producens). Description: fluorescence polarisation.
Data set [7] addresses Avitag-CurG ACP-dd (Moorea producens). The experiment in a line: BLI.
The target of data set [8] is CurK-CurL ^ACPddK-G3SG3S-ddL^KS (Moorea producens).
Data set [9] deals with CurI dd-KS-AT dimer (Moorea producens). Description: SEC. For orientation: Size exclusion chromatography separates by hydrodynamic size, large species first.
The target in data set [10] is CurL ACP-dd (Moorea producens). The experiment in a line: fluorescence polarisation.
Data set [11] has as its target CurL dd^KS (Moorea producens). The experiment in a line: crystal structure.
Data set [12] deals with the molecule itself.
The data set “crystal structure” deals with the molecule itself. Description: crystal structure.

Where two headings read alike, the source gives them in different places.

Regarding CurI dd-KS-AT (domain or fragment), in data set [1], the equilibrium dissociation constant (Kd) is 20.5 µM. In the case of ddH^KS-PikAIV (enzyme), in data set [2], the 10-deoxymethynolide (10-dml) produced, percent of wild type PikAIII/PikAIV was found to be 188%; the narbonolide (nbl) produced, percent of wild type PikAIII/PikAIV came out at 70%; the pentaketide substrate consumed in the PikAIII/PikAIV two-module reaction was 86%. CurH dd-KS-AT (domain or fragment): the Kd was determined as 10 µM in [3]; 9.2 µM in data set [4]; 15.7 µM in data set [5]; 23.7 µM in data set [6]; 16.5 µM in [7]. Turning to CurK-CurL ^ACPddK-G3SG3S-ddL^KS, in data set [8], the stoichiometry N amounted to 2.

On to “CurI dd-KS-AT dimer (domain or fragment)”, for which the stoichiometry N in data set [9] stood at 2. This molecule also gave a Kd in data set [1] of 9.4 µM. Regarding CurM dd-KS-AT (domain or fragment), the equilibrium dissociation constant (Kd) was found to be 5.4 µM in data set [10] and 52 µM in data set [6]. CurL dd^KS (domain or fragment) came in with a stoichiometry N in [11] of 2.

For “CurH dd-KS-AT lacking helix αA and the dd^KS loop (domain or fragment)”, the Kd in [5] was found to be 117 µM.

B1: CurG-CurH ^ACPddG-G3SG3S-ddH^KS (other, Moorea producens)
chain: LEAKLLDEIKQSSNQELESSIDQILESIINGGGSGGGSMLNKFTKKEQILSEKQQIKQLSPLQRAALALKKLETKLNNTLHE
As to B1, the “stoichiometry N” value in data set [12] was determined as 2.

B2: CurL dd-KS-AT (domain or fragment, Moorea producens)
chain: MNLKQEQEKEQSLSALQRALIALKDARSKLEKYETQSKEPIAIIGMSCRFPGGVDSPESFWQLLNDGVDAISEVPSNRWNINNYYDPDPDATGKISTRDGGFLSQIDGFDAPFFCISPREVQSLDPQQRLLLEVSWEAIERANIVPDQLFNSLTGVFIGIGSSDYLNQLATSEVPQAYWGTGNAPSAATGRLSYILGLTGPNLAVETACSSSLVSLHLACQSLRQQECNLALAGGVNLLLSPETSIIFSQAKMLSPDGRCKTFDASANGYVRGEGCGVIVLKRLSDAVANGDNVLAVIRGTAINQDGASGGLTVPNGPSQVAVIRKALSNGGVDPASVSYIEAHGTGTSLGDPIEVGAIGTVFGKTHSQEQPLIVGTAKTNIGHLEVAAGIAGLMKVVLQLQHQQIAPSLHFKQPNPYINWSQLPVQVSTQLTPWQTNGKSRIAGVSSFGFSGTNAHVVIEEAPKEGNSLSATVEENGNSTVKEDTLERAVYLLTLSAKTQAALDDLVNSYQNYLKNYPELRIADICYTANTCRSHFNNRLAVVASNQQELVEKLRQHQQGEEVTGIYSIELPNNSTAPKIALLFTGQGSQYVNMGRQLYQQAPVFRKALEQCNEILLGTETFREKSLLEILYPANQEQSNSSLLDQTAYTQPCLFALEYALFKLWQSWGIQPDVVMGHSVGEYVAATVAGVFSLEEGLKLIAARGRLMQQLPAGGEMVSVIASESKVLEIFKAMSLEEKVAIAAINGPESTVISGEAEAVGAIATHLESLSIKTKQLQVSHAFHSRLMEPMLAEFEAVAKQVTYSQPQISLISNVTGQQVGSEITSAEYWVNHVRQPVRFSESMTTLHQEGYELFLEIGPKPILLGMGRQCLPEGVGVWLPSLRPGVEAWQQMLQSLGQLYMKGIKVNWSGFDQDYACHKVAIPTYPFQRESYWIDT
Turning to B2, the “stoichiometry N” value in “crystal structure” stood at 2. In data set [6], this molecule came in with a Kd of 4.5 µM.

As a reminder, the Kd is the constant that tells how readily two partners part at equilibrium. Read a low Kd as tighter binding. As usually defined, the stoichiometry N is the number of molecules, sites or subunits per partner or assembly.
